Experimental data taken from patent publication US20160031957A1 (UNITED STATES OF AMERICA AS REPRESENTED BY THE SECRETARY …, published 2016).
Positions count from the first letter of the chain named.

Legend:
Assay in all cases: interaction in ABC DLBCL cells expressing the RNF31 isoform; method not detailed
[1] = target: T1, RNF31 Q584H mutant expressed in ABC DLBCL cells (UniProt Q96EP0 1-1072)
T1 construct: Expressed in ABC DLBCL cells; also called RNF31 mutant
T1 sequence (looked up): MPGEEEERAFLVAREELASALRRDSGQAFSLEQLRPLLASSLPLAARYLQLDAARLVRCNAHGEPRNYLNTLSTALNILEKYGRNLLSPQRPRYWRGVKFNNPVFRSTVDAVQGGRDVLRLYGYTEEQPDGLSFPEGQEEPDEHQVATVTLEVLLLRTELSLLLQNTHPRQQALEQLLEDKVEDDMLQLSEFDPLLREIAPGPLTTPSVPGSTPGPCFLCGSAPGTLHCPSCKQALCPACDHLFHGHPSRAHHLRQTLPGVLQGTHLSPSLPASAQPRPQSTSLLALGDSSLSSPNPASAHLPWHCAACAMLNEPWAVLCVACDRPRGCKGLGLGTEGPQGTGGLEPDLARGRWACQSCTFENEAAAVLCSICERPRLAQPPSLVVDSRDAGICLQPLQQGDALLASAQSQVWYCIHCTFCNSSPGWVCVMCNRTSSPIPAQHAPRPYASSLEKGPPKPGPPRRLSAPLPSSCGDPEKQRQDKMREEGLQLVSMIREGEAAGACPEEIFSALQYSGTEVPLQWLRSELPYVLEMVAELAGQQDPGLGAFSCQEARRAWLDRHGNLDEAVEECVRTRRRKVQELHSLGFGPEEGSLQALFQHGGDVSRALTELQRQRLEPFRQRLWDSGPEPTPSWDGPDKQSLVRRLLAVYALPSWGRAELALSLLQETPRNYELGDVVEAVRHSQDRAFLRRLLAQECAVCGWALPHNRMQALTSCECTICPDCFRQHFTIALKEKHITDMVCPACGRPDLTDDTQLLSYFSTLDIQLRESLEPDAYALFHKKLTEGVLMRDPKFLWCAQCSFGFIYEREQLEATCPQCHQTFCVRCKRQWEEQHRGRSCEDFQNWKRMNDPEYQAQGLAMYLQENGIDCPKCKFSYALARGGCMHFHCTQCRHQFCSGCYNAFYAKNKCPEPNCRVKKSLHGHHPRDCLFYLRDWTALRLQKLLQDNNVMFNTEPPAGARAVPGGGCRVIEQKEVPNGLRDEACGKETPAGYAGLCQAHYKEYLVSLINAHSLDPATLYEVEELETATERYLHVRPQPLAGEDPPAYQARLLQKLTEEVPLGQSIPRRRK

[2] = target: T2, RNF31 Q622L mutant expressed in ABC DLBCL cells (UniProt Q96EP0 1-1072)
T2 construct: Expressed in ABC DLBCL cells; also called RNF31 mutant
T2 sequence (looked up): T1 sequence (looked up) with H584Q, Q622L

[3] = target: T3, wild type RNF31 expressed in ABC DLBCL cells (UniProt Q96EP0 1-1072)
T3 sequence (looked up): T1 sequence (looked up) with H584Q

Measured: binding result

B1: MALT1 (enzyme, UniProt Q9UDY8 2-824, looked up)
chain: SLLGDPLQALPPSAAPTGPLLAPPAGATLNRLREPLLRRLSELLDQAPEGRGWRRLAELAGSRGRLRLSCLDLEQCSLKVLEPEGSPSLCLLKLMGEKGCTVTELSDFLQAMEHTEVLQLLSPPGIKITVNPESKAVLAGQFVKLCCRATGHPFVQYQWFKMNKEIPNGNTSELIFNAVHVKDAGFYVCRVNNNFTFEFSQWSQLDVCDIPESFQRSVDGVSESKLQICVEPTSQKLMPGSTLVLQCVAVGSPIPHYQWFKNELPLTHETKKLYMVPYVDLEHQGTYWCHVYNDRDSQDSKKVEIIIGRTDEAVECTEDELNNLGHPDNKEQTTDQPLAKDKVALLIGNMNYREHPKLKAPLVDVYELTNLLRQLDFKVVSLLDLTEYEMRNAVDEFLLLLDKGVYGLLYYAGHGYENFGNSFMVPVDAPNPYRSENCLCVQNILKLMQEKETGLNVFLLDMCRKRNDYDDTIPILDALKVTANIVFGYATCQGAEAFEIQHSGLANGIFMKFLKDRLLEDKKITVLLDEVAEDMGKCHLTKGKQALEIRSSLSEKRALTDPIQGTEYSAESLVRNLQWAKAHELPESMCLKFDCGVQIQLGFAAEFSNVMIIYTSIVYKPPEIIMCDAYVTDFPLDLDIDPKDANKGTPEETGSYLVSKDLPKHCLYTRLSSLQKLKEHLVFTVCLSYQYSGLEDTVEDKQEVNVGKPLIAKLDMHRGLGRKTCFQTCLMSNGPYQSSAATSGGAGHYHSLQDPFHGVYHSHPGNPSNVTPADSCHCSRTPDAFISSFAHHASCHFSRSNVPVETTDEIPFSFSDRLRISEK
notes: Endogenous protein in cell lysates
binds: all assays above
